From PMC8546573

Tests used:
[1] = target: biotinylated soluble human PDGFRα (UniProt P16234); test: cell-based binding (staining of transfected 293E cells with soluble PDGFRα and 13H11 scFv); settings: read off a plot
[2] = target: HCMV gHgLgO trimer with full-length gH on HEK293-6E cells, gO R236N/P238S (human cytomegalovirus, strain AD169 | human cytomegalovirus, strain TR) (UniProt P12824); test: flow cytometry on cells; HEK293-6E cells cotransfected with full-length gH, gL and gO (wt or mutant) stained with 4 μg/ml biotinylated PDGFRα in PBS with 0.5% BSA, room temperature, half an hour, then Alexa Fluor 647-streptavidin; PDGFRα staining set against staining by the gH antibody 13H11 and compared with wt
[3] = target: HCMV gHgLgO trimer with full-length gH on HEK293-6E cells, gO K359A (human cytomegalovirus, strain AD169 | human cytomegalovirus, strain TR) (UniProt P12824); test: as above
[4] = target: HCMV gHgLgO trimer with full-length gH on HEK293-6E cells, gO Y240A (human cytomegalovirus, strain AD169 | human cytomegalovirus, strain TR) (UniProt P12824); test: as above
[5] = target: HCMV gHgLgO trimer with full-length gH on HEK293-6E cells, gO R236A (human cytomegalovirus, strain AD169 | human cytomegalovirus, strain TR) (UniProt P12824); test: as above
[6] = target: HCMV gHgLgO trimer with full-length gH on HEK293-6E cells, gO R214A (human cytomegalovirus, strain AD169 | human cytomegalovirus, strain TR) (UniProt P12824); test: as above

Substance	other: ratio of PDGFRα/13H11 binding [1]	further results
HCMV gHgLgO trimer with full-length gH on the surface of HEK293-6E cells, gO wild type (from UniProt P12824;P16832) gO:P343A	1.2	
HCMV gHgLgO trimer with full-length gH on the surface of HEK293-6E cells, gO wild type (from UniProt P12824;P16832) gO:R349A	1	
HCMV gHgLgO trimer with full-length gH on the surface of HEK293-6E cells, gO wild type (from UniProt P12824;P16832) gO:K194A	1.1	
HCMV gHgLgO trimer with full-length gH on the surface of HEK293-6E cells, gO wild type (from UniProt P12824;P16832) gO:R119A	0.9	
HCMV gHgLgO trimer with full-length gH on the surface of HEK293-6E cells, gO wild type (from UniProt P12824;P16832) gO:E346A	1.2	
HCMV gHgLgO trimer with full-length gH on the surface of HEK293-6E cells, gO wild type (from UniProt P12824;P16832) gO:F113N	0.73	
HCMV gHgLgO trimer with full-length gH on the surface of HEK293-6E cells, gO wild type (from UniProt P12824;P16832) gO:F113A	0.75	
HCMV gHgLgO trimer with full-length gH on the surface of HEK293-6E cells, gO wild type (from UniProt P12824;P16832) gO:F138A	0.82	
HCMV gHgLgO trimer with full-length gH on the surface of HEK293-6E cells, gO wild type (from UniProt P12824;P16832) gO:T116A	0.62	
HCMV gHgLgO trimer with full-length gH on the surface of HEK293-6E cells, gO wild type (from UniProt P12824;P16832) gO:K123A	0.87	
biotinylated soluble human PDGFRα (from UniProt P16234 24-528) (receptor)		percent of wild-type binding [2]: 50 % of wt; percent of wild-type binding [3]: < 33 % of wt; percent of wild-type binding [4]: < 33 % of wt; percent of wild-type binding [5]: < 33 % of wt; percent of wild-type binding [6]: < 33 % of wt
HCMV gHgLgO trimer with full-length gH on the surface of HEK293-6E cells, gO wild type (from UniProt P12824;P16832) gO:R239A	1.1	
HCMV gHgLgO trimer with full-length gH on the surface of HEK293-6E cells, gO wild type (from UniProt P12824;P16832) gO:R338A	0.95	
HCMV gHgLgO trimer with full-length gH on the surface of HEK293-6E cells, gO wild type (from UniProt P12824;P16832) gO:Y371A	1.1	
HCMV gHgLgO trimer with full-length gH on the surface of HEK293-6E cells, gO wild type (from UniProt P12824;P16832) gO:R232A	0.96	
HCMV gHgLgO trimer with full-length gH on the surface of HEK293-6E cells, gO wild type (from UniProt P12824;P16832) gO:Q117A	0.81	
